Measurements taken from patent US20070166299A1, “TREATMENT FOR EMBOLIC STROKE” (priority 2005, published 2007).
“Also recorded” adds a separate entry of the source.

Assays:
[1] = test system: small clot embolic strokes in rabbits; assay: rabbit small clot embolic stroke model (RSCEM), quantal analysis of behavior; format: in vivo
Excerpt: The invention used a rabbit small clot embolic stroke model (RSCEM) that reproduces many facets of human AIS including a well-defined clinical endpoint. The RSCEM utilizes administration of a suspension of small blood clots to induce strokes, and behavioral deficits that can be measured quantitatively. Moreover, the RSCEM is useful to conduct studies testing the effects of single drugs or drug combinations such as a neuroprotective agent (e.g., NXY-059) plus a thrombolytic (Tenecteplase, Alteplase, Desmoteplase and the like). Since it is likely that a drug combination will be used for patient management it is important to determine whether there are any interactions (positive or negative) between the compounds when administered following embolic strokes.
Methods: Male New Zealand white rabbits were anesthetized using halothane (5% induction, 2% maintenance by facemask), the bifurcation of the right carotid artery was exposed and the external carotid was ligated just distal to the bifurcation, where a catheter was inserted into the common carotid and secured with ligatures. The incision was closed around the catheter with the distal ends left accessible outside the neck; the catheter was filled with heparinized saline and plugged with an injection cap. Rabbits were allowed to recover from anesthesia for a minimum of 3 h until they awoke and behaved normally.
For the RSCEM, microclots were prepared from blood drawn from a donor rabbit and allowed to clot at 37° C. All rabbits in the study received injections of the same sized microclots. For embolization, clot particles were rapidly injected through the carotid catheter and both the syringe and catheter were flushed with 5 ml of normal saline. […]
Quantal Dose-Response Analysis: For the RSCEM, a quantal dose-response data analysis technique was used. […] The P50 values are then calculated. […] The data were analyzed using the t-test, which included the Bonferroni correction where appropriate. […]

[2] = test system: small clot embolic strokes in rabbits; settings: previous studies; cited from earlier work

B1: Tenecteplase: thrombolytic agent supplied by Genentech as a lyophilized cake, the formulation used clinically (protein, UniProt P00750 36-562, looked up, variant T103N N117Q K296A H297A R298A R299A)
Tissue-type plasminogen …: SYQVICRDEKTQMIYQQHQSWLRPVLRSNRVEYCWCNSGRAQCHSVPVKSCSEPRCFNGGTCQQALYFSDFVCQCPEGFAGKCCEIDTRATCYEDQGISYRGNWSTAESGAECTNWQSSALAQKPYSGRRPDAIRLGLGNHNYCRNPDRDSKPWCYVFKAGKYSSEFCSTPACSEGNSDCYFGNGSAYRGTHSLTESGASCLPWNSMILIGKVYTAQNPSAQALGLGKHNYCRNPDGDAKPWCHVLKNRRLTWEYCDVPSCSTCGLRQYSQPQFRIKGGLFADIASHPWQAAIFAAAAASPGERFLCGGILISSCWILSAAHCFQERFPPHHLTVILGRTYRVVPGEEEQKFEVEKYIVHKEFDDDTYDNDIALLQLKSDSSRCAQESSVVRTVCLPPADLQLPDWTECELSGYGKHEALSPFYSERLKEAHVRLYPSSRCTSQHLLNRTVTDNMLCAGDTRSGGPQANLHDACQGDSGGPLVCLNDGRMTLVGIISWGLGCGQKDVPGVYTKVTNYLDWIRDNMRP
For B1, the P50 ([1]; Tenecteplase 0.9 mg/kg IV bolus, 1 hour following embolization) was 2.76 ± 0.37 mg, the “increase of P50 over control” value ([1]; Tenecteplase 0.9 mg/kg, 1 hour following embolization) was 130% and the “P50 compared to control” value ([1]; Tenecteplase 0.9 mg/kg, 6 hours following embolization) was “did not increase the P50 compared to control; also recorded: neither Tenecteplase, nor NXY-059, significantly (p>0.05) affect P50 values”. For the same molecule, the therapeutic window [2] was 3 h.
